Reference: patent US20220177457A1, “SMALL MOLECULES THAT BIND CYCLIN-DEPENDENT KINASE INHIBITOR 1B (P27KIP1)” (St. Jude Children's Hospital, Inc., priority 2019, published 2022)

Legend:
[1] = molecular target: T1, Cdk2/cyclin A (Homo sapiens, UniProt P24941); experiment: Cdk2/cyclin A kinase activity assay (32P incorporation into Histone H1); type: biochemical; details: Histone H1 as substrate; read-out: Half maximal Cdk2/cyclin A inhibitory concentration (IC50)
T1 construct: Full length human Cdk2; made in house
Protocol: Cdk2/Cyclin A ([…]) was mixed with Histone H1 (50 μM; EMD Millipore) and varied amounts of p27 constructs and incubated for 3 hours at 4° C. […] IC50 values were determined by curve fitting using GraphPad Prizm 7 software. Experiments were performed in triplicate and mean IC50 and standard deviations of the mean values are reported.

[2] = molecular target: T2, Cdk2 (Homo sapiens, UniProt P24941); experiment: Isothermal titration calorimetry of p27 variants into Cdk2; details: ITC at 25° C., binding to Cdk2
T2 construct: Full length human Cdk2; made in house
Protocol: (§1) ITC experiments were performed using a MicroCal ITC200 calorimeter with p27 variants in the syringe and Cdk2/cyclin A and Cdk2, respectively, in the cell. Prior to each set of experiments, protein samples were extensively dialyzed together against ITC buffer containing 20 mM HEPES, pH 7.5, 300 mM NaCl, 5 mM TCEP. A standard titration consisted of 19 injections of 2-μl of p27 variant (100 μM) into a solution of Cdk2/cyclin A (10 μM) or Cdk2 (10 μM), respectively. The time interval between injections was 180 s. Experiments were performed at 25° C. Thermodynamic parameters were obtained by fitting the raw data using Origin software (OriginLab) according to the manufacturers instructions using a 1:1 binding model to obtain values of the enthalpy of binding (ΔH), Gibbs free energy of binding (ΔG), entropy of binding (ΔS), and stoichiometry factor (N). Experiments were performed in triplicate and mean and standard deviations of the mean values of these parameters are reported.

[3] = molecular target: T1, Cdk2/cyclin A; experiment: Isothermal titration calorimetry of p27 variants into Cdk2/cyclin A; details: ITC at 25° C., binding to Cdk2/cyclin A
Protocol: as §1

[4] = molecular target: p27-KID (Homo sapiens, UniProt P46527); experiment: 2D 1H-15N HSQC NMR screening and titration of compounds into 15N-p27-KID; details: read-out: Kd (from CSP); single-site binding model fitted to chemical shift perturbation; 298 K, pH 6.5
Chain of p27-KID (P46527 22-105): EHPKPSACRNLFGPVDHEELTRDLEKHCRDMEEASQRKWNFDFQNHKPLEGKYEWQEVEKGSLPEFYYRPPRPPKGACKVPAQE
Protocol: Two-dimensional (2D)^1H-^15N HSQC NMR experiments were performed using a SampleJet sample changer. […] Chemical shift perturbation values were quantified using the equation Δδ=√{square root over (ΔδH^2+(0.2ΔδN)^2)}. The statistical significance was based on a threshold defined as the average CSP value plus two times the standard deviation of the mean (Δδave+2σ).

IC50 [1] [µM]	Kd [2] [µM]	ΔG [2] [kcal/mol]	ΔH [2] [kcal/mol]	−TΔS [2] [kcal/mol]	Kd [3] [µM]	ΔG [3] [kcal/mol]	ΔH [3] [kcal/mol]	−TΔS [3] [kcal/mol]	Kd [4] [µM]	Compound
0.067 ± 0.022	0.231 ± 0.0674	-9.1 ± 0.2	-24.5 ± 0.7	15.4 ± 0.9	0.134 ± 0.0235	-9.4 ± 0.1	-24.7 ± 1.8	15.3 ± 1.9	–	p27-D2: D2 sub-domain of p27, residues 58-105 of human p27 (RKWNFDFQNHKPLEGKYEWQEVEKGSLPEFYYRPPRPPKGACKVPAQE; UniProt P46527 58-105, looked up, fragment)
–	–	–	–	–	–	–	–	–	4800 ± 1300	O=c1oc2cc(OCCO)ccc2c2c1CCCC2 [SJ710]
